In publication PMC4995099, “Drosophila Nanos acts as a molecular clamp that modulates the RNA-binding and repression activities of Pumilio” one finds percent repression of the RnLuc WT hb 3´UTR reporter in D.mel-2 cells (endogenous Pum), against Halo-tag alone, binding result and Kd data, which are given here for 17 molecules.

As a reminder, the Kd is the constant that tells how readily two partners part at equilibrium.

Data set [1] has as its target T1, Drosophila Pum RNA-binding domain (amino acids 1091–1426), crystallisation construct (Drosophila melanogaster) (UniProt P25822).
T1 sequence: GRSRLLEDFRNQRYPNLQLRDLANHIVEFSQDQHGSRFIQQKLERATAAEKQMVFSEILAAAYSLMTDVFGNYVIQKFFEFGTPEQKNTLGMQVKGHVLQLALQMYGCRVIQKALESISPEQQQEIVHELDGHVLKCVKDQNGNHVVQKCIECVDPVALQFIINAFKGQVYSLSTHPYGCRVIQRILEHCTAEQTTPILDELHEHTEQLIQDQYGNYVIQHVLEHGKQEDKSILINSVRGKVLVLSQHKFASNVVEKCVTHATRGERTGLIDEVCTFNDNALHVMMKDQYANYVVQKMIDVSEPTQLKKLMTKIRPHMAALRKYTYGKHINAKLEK

The target in data set [2] is T2, Pum PUM-HD WT (EMSA);Nos ZC WT (EMSA) (Drosophila melanogaster?;Drosophila …, UniProt P25822;P25724 1091-1426;289-401, |).
T2 sequence 1: T1 sequence
T2 sequence 2: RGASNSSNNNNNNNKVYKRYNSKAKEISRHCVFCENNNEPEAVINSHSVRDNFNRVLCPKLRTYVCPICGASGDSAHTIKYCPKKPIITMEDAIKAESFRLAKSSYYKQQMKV
Kind of data set: EMSA; 1 uM Nos ZC; Kd only in figure; EMSA: 50 mM Tris-HCl pH 7.6, 150 mM NaCl, 2 mM DTT, 2 ug/mL BSA, 0.01% Igepal CA-630, 0.02% bromophenol blue, 20% glycerol, 3 h at 4 C; 1 nM Cy5 RNA or 0.3 nM 32P RNA. The following applies: protein: recombinant;recombinant, tags: N-terminal 3xFLAG, Halo-tag removed by TEV;C-terminal V5, copies: 1;1, label: 5' 32P.

Data set [3] concerns the target T3, Pum PUM-HD WT (EMSA) (UniProt P25822 1091-1426).
T3 sequence: T1 sequence
Kind of data set: EMSA; no stable binary complex; EMSA: 50 mM Tris-HCl pH 7.6, 150 mM NaCl, 2 mM DTT, 2 ug/mL BSA, 0.01% Igepal CA-630, 0.02% bromophenol blue, 20% glycerol, 3 h at 4 C; 1 nM Cy5 RNA or 0.3 nM 32P RNA. The settings on record: protein: recombinant; tags: N-terminal 3xFLAG; Halo-tag removed by TEV; label: 5' 32P. In general terms: In EMSA bound probe runs differently from free probe, usually more slowly.

Data set [4] has as its target T3, Pum PUM-HD WT (EMSA). Kind of data set: EMSA; no stable binding; EMSA: 50 mM Tris-HCl pH 7.6, 150 mM NaCl, 2 mM DTT, 2 ug/mL BSA, 0.01% Igepal CA-630, 0.02% bromophenol blue, 20% glycerol, 3 h at 4 C; 1 nM Cy5 RNA or 0.3 nM 32P RNA. The following applies: protein: recombinant; tags: N-terminal 3xFLAG; Halo-tag removed by TEV; label: 5' 32P.
The target in data set [5] is T2, Pum PUM-HD WT (EMSA);Nos ZC WT (EMSA). Kind of data set: EMSA; Pum titrated, 1 uM Nos ZC constant; EMSA: 50 mM Tris-HCl pH 7.6, 150 mM NaCl, 2 mM DTT, 2 ug/mL BSA, 0.01% Igepal CA-630, 0.02% bromophenol blue, 20% glycerol, 3 h at 4 C; 1 nM Cy5 RNA or 0.3 nM 32P RNA. The settings on record: protein: recombinant;recombinant, tags: N-terminal 3xFLAG, Halo-tag removed by TEV;C-terminal V5, copies: 1;1, label: 5' 32P.

Data set [6] addresses T4, Pum RNA-binding domain (crystal);Nos ZF domain (crystal) (Drosophila melanogaster?;Drosophila …, UniProt P25822;P25724 1091-1426;289-401, |).
T4 sequence 1: T1 sequence
T4 sequence 2: T2 sequence 2
Kind of data set: X-ray crystallography; 4.0 A; Zn2+; EMSA: 50 mM Tris-HCl pH 7.6, 150 mM NaCl, 2 mM DTT, 2 ug/mL BSA, 0.01% Igepal CA-630, 0.02% bromophenol blue, 20% glycerol, 3 h at 4 C; 1 nM Cy5 RNA or 0.3 nM 32P RNA. The following applies: protein: recombinant;recombinant; tags: His6-SUMO removed by Ulp1;His6-SUMO removed by Ulp1; copies: 1;1.

Data set [7] addresses T3, Pum PUM-HD WT (EMSA). Kind of data set: EMSA; no stable complex, Pum up to 1 uM; EMSA: 50 mM Tris-HCl pH 7.6, 150 mM NaCl, 2 mM DTT, 2 ug/mL BSA, 0.01% Igepal CA-630, 0.02% bromophenol blue, 20% glycerol, 3 h at 4 C; 1 nM Cy5 RNA or 0.3 nM 32P RNA. The following applies: protein: recombinant; tags: N-terminal 3xFLAG; Halo-tag removed by TEV; label: 5' 32P.
In data set [8] the target is T2, Pum PUM-HD WT (EMSA);Nos ZC WT (EMSA). The data set is described as follows: EMSA; 1 uM Nos ZC; N/D; EMSA: 50 mM Tris-HCl pH 7.6, 150 mM NaCl, 2 mM DTT, 2 ug/mL BSA, 0.01% Igepal CA-630, 0.02% bromophenol blue, 20% glycerol, 3 h at 4 C; 1 nM Cy5 RNA or 0.3 nM 32P RNA. The following applies: protein: recombinant;recombinant, tags: N-terminal 3xFLAG, Halo-tag removed by TEV;C-terminal V5, copies: 1;1, label: 5' 32P.

Data set [9] has as its target T3, Pum PUM-HD WT (EMSA). Kind of data set: EMSA; N/D; EMSA: 50 mM Tris-HCl pH 7.6, 150 mM NaCl, 2 mM DTT, 2 ug/mL BSA, 0.01% Igepal CA-630, 0.02% bromophenol blue, 20% glycerol, 3 h at 4 C; 1 nM Cy5 RNA or 0.3 nM 32P RNA. The settings on record: protein: recombinant; tags: N-terminal 3xFLAG; Halo-tag removed by TEV; label: 5' 32P.
The target of data set [10] is T3, Pum PUM-HD WT (EMSA). Kind of data set: EMSA; EMSA: 50 mM Tris-HCl pH 7.6, 150 mM NaCl, 2 mM DTT, 2 ug/mL BSA, 0.01% Igepal CA-630, 0.02% bromophenol blue, 20% glycerol, 3 h at 4 C; 1 nM Cy5 RNA or 0.3 nM 32P RNA. The settings on record: protein: recombinant; tags: N-terminal 3xFLAG; Halo-tag removed by TEV.
Data set [11] has as its target T5, Pum RNA-binding domain (crystal) (UniProt P25822 1091-1426).
T5 sequence: T1 sequence
The data set is described as follows: X-ray crystallography; 1.14 A; EMSA: 50 mM Tris-HCl pH 7.6, 150 mM NaCl, 2 mM DTT, 2 ug/mL BSA, 0.01% Igepal CA-630, 0.02% bromophenol blue, 20% glycerol, 3 h at 4 C; 1 nM Cy5 RNA or 0.3 nM 32P RNA. The following applies: protein: recombinant; tags: His6-SUMO removed by Ulp1.

The target of data set [12] is T6, Pum RNA-binding domain (aa1091-1426) with N-terminal triple FLAG tag, EMSA construct (Drosophila melanogaster, UniProt P25822-1 1091-1426).
T6 chain: T1 sequence
The data set is described as follows: EMSA, Nos binding to Pum–hb NRE2 RNA complex (100 nM Pum).

In [1], “Halo-Nos I376A (full-length) (natural protein)” registered a percent repression of the RnLuc WT hb 3´UTR reporter in D.mel-2 cells (endogenous Pum), against Halo-tag alone of 46%. The molecule “Halo-Nos I382A (full-length) (natural protein)” had a percent repression of the RnLuc WT hb 3´UTR reporter in D.mel-2 cells (endogenous Pum), against Halo-tag alone in data set [1] of 60%. As for “Halo-Nos NZ (aa1-373) (domain or fragment)”, in [1], the percent repression of the RnLuc WT hb 3´UTR reporter in D.mel-2 cells (endogenous Pum), against Halo-tag alone is 14%.

“Halo-Nos M378A (full-length) (natural protein)”: the percent repression of the RnLuc WT hb 3´UTR reporter in D.mel-2 cells (endogenous Pum), against Halo-tag alone in data set [1] stood at 29%.

B1: Halo-Nos Δ383–393 (aa1-382 + 394–401) (natural protein)
chain: MFRSNLEGSGAAADNFSAFHARGGLNILGLQDMYLDTSGANSSATLSPPITPVTPDPSTSAQSTHFPFLADSAATANSLLMQRQYHYHLLLQQQQQLAMAQHQLALAASAAAASASHQQTDEIARSLKIFAQVTTGAAENAAGSMQDVMQEFATNGYASDDLGRMSYGSAPPQVQMPPQQQHQQQQGLHLPLGRNPAQLQTNGGNLMPIPLATHWLNNYREHLNNVWRNMSYIPAAPNTMGLQAQTAATVSTNLGVGMGLGLPVQGEQLRGASNSSNNNNNNNKVYKRYNSKAKEISRHCVFCENNNEPEAVINSHSVRDNFNRVLCPKLRTYVCPICGASGDSAHTIKYCPKKPIITMEDAIYYKQQMKV
B1 registered a percent repression of the RnLuc WT hb 3´UTR reporter in D.mel-2 cells (endogenous Pum), against Halo-tag alone in data set [1] of 43%. GAAUUGUAUAUAUUCG (ssRNA) [hb NRE1 RNA]: the binding result was “binds” in [2] and “no binding” in the data set with Pum PUM-HD WT (EMSA) [3].

B2: Halo-tagged, full-length Nos protein (NZC) (natural protein)
chain: MFRSNLEGSGAAADNFSAFHARGGLNILGLQDMYLDTSGANSSATLSPPITPVTPDPSTSAQSTHFPFLADSAATANSLLMQRQYHYHLLLQQQQQLAMAQHQLALAASAAAASASHQQTDEIARSLKIFAQVTTGAAENAAGSMQDVMQEFATNGYASDDLGRMSYGSAPPQVQMPPQQQHQQQQGLHLPLGRNPAQLQTNGGNLMPIPLATHWLNNYREHLNNVWRNMSYIPAAPNTMGLQAQTAATVSTNLGVGMGLGLPVQGEQLRGASNSSNNNNNNNKVYKRYNSKAKEISRHCVFCENNNEPEAVINSHSVRDNFNRVLCPKLRTYVCPICGASGDSAHTIKYCPKKPIITMEDAIKAESFRLAKSSYYKQQMKV
Molecule B2 had a percent repression of the RnLuc WT hb 3´UTR reporter in D.mel-2 cells (endogenous Pum), against Halo-tag alone in [1] of 70%. In the case of AAAUUGGACAUAAGCC (ssRNA) [hb NRE2 +3G RNA], in the data set with Pum PUM-HD WT (EMSA) [4], the binding result is “no binding”. In data set [5], the Kd stood at 59.9 nM.

As to UAUUUGUAAUUUAU (ssRNA) [CycB NRE RNA 14-nt (crystal)], the binding result in data set [6] is listed as “binds”.

Turning to UAUUUGUAAUUUAUAUC (ssRNA) [CycB NRE RNA (EMSA)], the binding result in the data set with Pum PUM-HD WT (EMSA) [7] is given as “no binding”. For the same molecule, the Kd in data set [5] is 12 nM. Consider AAAUACAACAUAAGCC (ssRNA) [hb NRE2 ACA RNA], for which the binding result (in data set [8]; with Pum PUM-HD WT (EMSA) [9]) was “no binding” throughout. Turning to AAACUGUACAUAAGCC (ssRNA) [hb NRE2 -1C RNA], in the data set with Pum PUM-HD WT (EMSA) [10], the binding result is given as “binds”.

UGUACAUA (ssRNA) [hb PRE2 RNA 8-nt]: the binding result in data set [11] is on record as “binds”. As for AACUUGUACAUAAGCC (ssRNA) [hb NRE2 -2C RNA], the binding result in the data set with Pum PUM-HD WT (EMSA) [10] is “binds”.

B3: Halo-Nos Δ376–382 (aa1-375 + 383–401) (natural protein)
chain: MFRSNLEGSGAAADNFSAFHARGGLNILGLQDMYLDTSGANSSATLSPPITPVTPDPSTSAQSTHFPFLADSAATANSLLMQRQYHYHLLLQQQQQLAMAQHQLALAASAAAASASHQQTDEIARSLKIFAQVTTGAAENAAGSMQDVMQEFATNGYASDDLGRMSYGSAPPQVQMPPQQQHQQQQGLHLPLGRNPAQLQTNGGNLMPIPLATHWLNNYREHLNNVWRNMSYIPAAPNTMGLQAQTAATVSTNLGVGMGLGLPVQGEQLRGASNSSNNNNNNNKVYKRYNSKAKEISRHCVFCENNNEPEAVINSHSVRDNFNRVLCPKLRTYVCPICGASGDSAHTIKYCPKKPIKAESFRLAKSSYYKQQMKV
As to B3, the percent repression of the RnLuc WT hb 3´UTR reporter in D.mel-2 cells (endogenous Pum), against Halo-tag alone in data set [1] came out at 27%. Take UGAUUGUAGAUAUCUA (ssRNA) [bcd NRE RNA]: the binding result in [2] is “binds”; with Pum PUM-HD WT (EMSA) [3], “no binding”.

B4: Nos ZC (aa289-401) with C-terminal V5 epitope, EMSA construct (domain or fragment)
chain: T2 sequence 2
modifications: two Zn2+ bound by the CCHC zinc fingers; C-terminal V5 epitope omitted
Molecule B4 gave a Kd in data set [12] of 4.6 nM.
